Binding result and Kd data for two molecules are collected here from US20210338833A1 (MIT, published 2021).

T1: biotinylated F12 derivative GGGGSGGGGSGGGGSASRICPWNCKEL (not fully specified; biotinylated on the N-terminus)
T1 construct: Free peptide loaded on a streptavidin coated plate for ELISA
T1 peptide: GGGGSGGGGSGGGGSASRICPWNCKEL

T2: biotinylated F12 derivative SASRICPWNCKEL (not fully specified (bridges); cysteine pairing not given here)
T2 construct: Free peptide loaded on a streptavidin coated plate for ELISA
T2 peptide: Biotin-SASRICPWNCKEL

T3: biotinylated F12 derivative GGSGGGGSASRICPWNCKEL (not fully specified; biotinylated on the N-terminus)
T3 construct: Free peptide loaded on a streptavidin coated plate for ELISA
T3 peptide: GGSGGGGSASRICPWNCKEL

T4: biotinylated F12 mimotope RICPWNCKEL (no flanking residues) (not fully specified (bridges); cysteine pairing not given here)
T4 construct: Free peptide loaded on a streptavidin coated plate for ELISA; also called Bio-F12; F12 without flanking residues
T4 peptide: Biotin-RICPWNCKEL

T5: biotinylated F12 derivative GGGSASRICPWNCKEL (not fully specified (bridges); cysteine pairing not given here)
T5 construct: Free peptide loaded on a streptavidin coated plate for ELISA
T5 peptide: Biotin-GGGSASRICPWNCKEL

T6: biotinylated F12 derivative GSGGGGSGGGGSASRICPWNCKEL (not fully specified; biotinylated on the N-terminus)
T6 construct: Free peptide loaded on a streptavidin coated plate for ELISA
T6 peptide: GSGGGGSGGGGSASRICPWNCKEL

T7: FMC63 Mimotope Mutant RLCPWSACREL
T7 construct: also called G9 with one alanine inserted between the cysteines
T7 peptide: RLCPWSACREL

T8: FMC63 Mimotope Mutant RLCPWSAACREL
T8 construct: also called G9 with two alanines inserted between the cysteines
T8 peptide: RLCPWSAACREL

T9: FMC63 Mimotope Mutant RLCPWSCRAL
T9 construct: also called G9 X4 (Glu 9) to Ala
T9 peptide: RLCPWSCRAL

T10: FMC63 Mimotope Mutant RLCPWSCREA
T10 construct: also called G9 X5 (Leu 10) to Ala
T10 peptide: RLCPWSCREA

T11: FMC63 Mimotope Mutant RLCPWACREL
T11 construct: also called G9 X2 (Ser 6) to Ala
T11 peptide: RLCPWACREL

T12: FMC63 Mimotope Mutant RACPWSCREL
T12 construct: also called G9 X1 (Leu 2) to Ala
T12 peptide: RACPWSCREL

T13: FMC63 Mimotope Mutant RLCPWSCAEL
T13 construct: also called G9 X3 (Arg 8) to Ala
T13 peptide: RLCPWSCAEL

T14: FMC63 Mimotope (G9) RLCPWSCREL
T14 construct: Parent of the alanine scan
T14 peptide: RLCPWSCREL

T15: FMC63 Mimotope (F8) RLCPWDCREL
T15 peptide: RLCPWDCREL

T16: FMC63 Mimotope (H11) RICPWSCREL
T16 peptide: RICPWSCREL

T17: FMC63 Mimotope (F12) RICPWNCKEL
T17 construct: also called F12 mimotope
T17 peptide: RICPWNCKEL

T18: FMC63 Mimotope (H8) RICPWACVEL
T18 peptide: RICPWACVEL

T19: FMC63 Mimotope (B7) RICPWSCMVV
T19 peptide: RICPWSCMVV

T20: FMC63 Mimotope (C5) RMCPWSCYEL
T20 peptide: RMCPWSCYEL

T21: FMC63 Mimotope (C7) RLCPWACQEQ
T21 peptide: RLCPWACQEQ

T22: FMC63 Mimotope (H1) RVCPWSCMPI
T22 construct: Not the 1D3 mimotope that is also called H1
T22 peptide: RVCPWSCMPI

T23: FMC63 Mimotope (G11) RLCPWNCREL
T23 peptide: RLCPWNCREL

T24: FMC63 Mimotope (E6) RLCPWSCVPI
T24 peptide: RLCPWSCVPI

B1: FMC63 IgG (antibody, V domains shown)
VH: EVKLQESGPGLVAPSQSLSVTCTVSGVSLPDYGVSWIRQPPRKGLEWLGVIWGSETTYYNSALKSRLTIIKDNSKSQVFLKMNSLQTDDTAIYYCAKHYYYGGSYAMDYWGQGTSVTVSS
VL: DIQMTQTTSSLSASLGDRVTISCRASQDISKYLNWYQQKPDGTVKLLIYHTSRLHSGVPSRFSGSGSGTDYSLTISNLEQEDIATYFCQQGNTLPYTFGGGTKLEIT
notes: Murine monoclonal antibody to human CD19; also called FMC63 IgG antibody; biotinylated FMC63 IgG

Bridge positions count the residues as written; N and C are the ends. Ends that are not written are not given here. * marks the point of attachment. Biotin = O=C1N[C@H]2[C@H](CS[C@H]2CCCCC(=O)*)N1

Assay [1] deals with T1, biotinylated F12 derivative …. Nature of the assay: ELISA, biotinylated peptide on a streptavidin plate, OD(450nm) against the FMC63 IgG concentration (nM). (In general: In an ELISA, binding on a coated surface is turned into a signal by an enzyme label.)
Assay [2] deals with T2, biotinylated F12 derivative …. The description is as above.
For assay [3], the target named is T3, biotinylated F12 derivative …. Described as above.
The target of assay [4] is T4, biotinylated F12 mimotope RICPWNCKEL …. The assay is described as above.
The target in assay [5] is T5, biotinylated F12 derivative …. The assay is described as above.
The target in assay [6] is T6, biotinylated F12 derivative …. Described as above.
Assay [7] addresses T7, FMC63 Mimotope Mutant RLCPWSACREL
Nature of the assay: flow cytometry of yeast clones stained with FMC63 IgG; stacked histograms, no unstained control drawn. As to the method:
(§1) Specifically, a representative mimotope, […] […] To generate mutations, two complementary oligos with the codon replaced at the desired site were denatured at 95° C. and annealed by slow cooling to 25° C. (decreasing by 0.5° C./second). The annealed oligos were treated with T4 PNK (T4 Polynucleotide Kinase) to add a terminal phosphate, and then ligated into digested pCT-CON2 vector. Positive clones having the correct oligo inserted were tested and transformed into competent EBY100 yeast cells.
(A flow cytometer gives signals particle by particle.)

Assay [8] deals with T8, FMC63 Mimotope Mutant RLCPWSAACREL
Described as above. As to the method:
as §1

Assay [9] addresses T9, FMC63 Mimotope Mutant RLCPWSCRAL
Put plainly: flow cytometry of yeast clones stained with FMC63 IgG (5 µM by paragraph 811); stacked histograms, no unstained control drawn. As to the method: as §1

The target of assay [10] is T10, FMC63 Mimotope Mutant RLCPWSCREA
The assay is described as above. Here is the method: as §1

For assay [11], the target named is T11, FMC63 Mimotope Mutant RLCPWACREL
The assay is described as above. As to the method: as §1

Assay [12] addresses T12, FMC63 Mimotope Mutant RACPWSCREL
Described as above. Here is the method: as §1

The target of assay [13] is T13, FMC63 Mimotope Mutant RLCPWSCAEL
Described as above. As to the method: as §1

The target in assay [14] is T14, FMC63 Mimotope (G9) RLCPWSCREL
The description is as above. As to the method:
as §1

The target of assay [15] is T15, FMC63 Mimotope (F8) RLCPWDCREL
Nature of the assay: flow cytometry of yeast clones titrated with biotinylated FMC63 IgG, MFI (geometric mean); axis without unit, nM by the legend paragraph 211.

The target in assay [16] is T16, FMC63 Mimotope (H11) RICPWSCREL
The assay is described as above.

Assay [17] addresses T17, FMC63 Mimotope (F12) RICPWNCKEL
Described as above.

The target in assay [18] is T18, FMC63 Mimotope (H8) RICPWACVEL
The assay is described as above.

For assay [19], the target named is T19, FMC63 Mimotope (B7) RICPWSCMVV
Described as above.

In assay [20] the target is T20, FMC63 Mimotope (C5) RMCPWSCYEL
Described as above.

Assay [21] has as its target T21, FMC63 Mimotope (C7) RLCPWACQEQ
The assay is described as above.

Assay [22] addresses T22, FMC63 Mimotope (H1) RVCPWSCMPI
The assay is described as above.

Assay [23] deals with T23, FMC63 Mimotope (G11) RLCPWNCREL
The assay is described as above.

In assay [24] the target is T24, FMC63 Mimotope (E6) RLCPWSCVPI
Described as above.

The target in assay [25] is B1. Nature of the assay: ELISA with FMC63 IgG; ELISA with FMC63 IgG (FIG. 7); micromolar range.

B1: the binding result in [1], in assay [2], in assay [3], in assay [4], in assay [5] and in [6] was “binds” throughout. For the same molecule, the binding result in assay [7] is on record as “no binding”; in [8] it was “no binding”; in assay [9], “binds”; in assay [10], “binds”; in assay [11], “binds”; in assay [12], “binds”. Further, the binding result in [13], in [14], in assay [15], in assay [16], in [17] and in assay [18] was “binds” in each case. The binding result in assay [19], in assay [20], in assay [21], in assay [22], in assay [23] and in assay [24] was “binds” throughout.
A word on the Kd: it is the free concentration of one partner at which half of the binding sites on the other are occupied at equilibrium, for simple one-to-one binding. A high value points to a looser complex. RHCPWNCSLL (disulfide 3-7 (inferred), Aga2p-HA-(G4S)3-AS-peptide, cf) [FMC63 Mimotope (A1) RHCPWNCSLL] gave an equilibrium dissociation constant (Kd) in [25] of roughly 1400 nM.
